{"source": "patent US20250136677A1", "about": "(ZOETIS SERVICES, published 2025)", "key": {"[1]": {"molecular_target": "T1, wildtype feline IL-31 protein (Feline_IL31_wildtype) (feline)", "T1 chain": "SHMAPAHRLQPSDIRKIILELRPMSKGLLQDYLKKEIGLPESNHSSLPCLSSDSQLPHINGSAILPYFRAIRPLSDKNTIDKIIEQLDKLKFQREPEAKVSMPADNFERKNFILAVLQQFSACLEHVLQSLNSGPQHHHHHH", "experiment": "cell-based or functional assay"}, "[2]": {"molecular_target": "T1, wildtype feline IL-31 protein …", "experiment": "cell-based or functional assay"}, "[3]": {"molecular_target": "T2, canine IL-31 protein (Canine_IL31) (canine)", "T2 chain": "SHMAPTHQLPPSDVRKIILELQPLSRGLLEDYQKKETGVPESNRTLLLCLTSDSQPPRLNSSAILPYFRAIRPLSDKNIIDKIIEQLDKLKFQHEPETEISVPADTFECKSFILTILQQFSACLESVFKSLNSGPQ", "experiment": "cell-based or functional assay"}, "[4]": {"molecular_target": "T2, canine IL-31 protein (Canine_IL31)"}, "[5]": {"molecular_target": "T3, wildtype feline IL-31 protein (Feline_IL31_wildtype) (feline)", "T3 sequence": "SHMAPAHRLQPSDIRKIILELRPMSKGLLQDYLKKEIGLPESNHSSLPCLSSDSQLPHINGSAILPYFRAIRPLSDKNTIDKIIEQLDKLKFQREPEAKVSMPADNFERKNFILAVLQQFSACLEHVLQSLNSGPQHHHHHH", "experiment": "Biacore, feline IL-31 chip, mAb 100 nM, share of points within parent mean +/-3 SD"}, "[6]": {"molecular_target": "T3, wildtype feline IL-31 protein (Feline_IL31_wildtype) (feline)"}, "[7]": {"molecular_target": "T1, wildtype feline IL-31 protein …", "experiment": "indirect ELISA, IL-31 protein coated", "description": "For the indirect ELISA method, antibody binding to wildtype and feline IL-31 15H05 mutant proteins was assessed. All nine canine monoclonal antibodies (ZIL1, ZIL8, ZIL8, ZIL11, ZIL69, ZIL94, ZIL154, ZIL159, and ZIL171) were capable of binding to wildtype feline IL-31 and binding was impacted by mutations in the mAb 15H05 epitope region confirming the correct binding phenotype determined during the initial screening used to identify them. In comparison, the 11E12 antibody bound to the wild-type feline IL-31 and its binding was not impacted by the mutations in the 15H05 epitope region as evidenced by the data in FIG. 4. To confirm binding, biacore analysis was performed using canine, feline, equine, human, feline 15H05 mutant, and feline 11E12 mutant IL-31 proteins as surfaces and a single test concentration of antibody. Similar to ELISA observations, all antibodies tested bound to wildtype feline IL-31. In agreement with the data described above in this section, mouse antibodies 11E12 and 15H05 both bound to canine and feline IL-31 surfaces. Three additional antibodies where shown to have this dual binding property, ZIL69 (partial canine binding), ZIL94, and ZIL159. From this group of nine fully canine antibodies, only ZIL1 and ZIL9 cross-reacted with equine IL-31. Of note, antibody 15H05 was the only one of all assayed herein that bound to canine, feline, and equine IL-31 indicating some level of epitope conservation across the three species. In contrast, none of the antibodies described herein bound to human IL-31. Additional biacore surfaces were used to verify ELISA observations showing differential binding of antibodies to wildtype feline IL-31 and two proteins with mutations in the 15H05 (15H05 mutant) or 11E12 (11E12 mutant) epitopes. […] In agreement with the ELISA results, all fully canine antibodies were impacted by the 15H05 mutation with the exception of ZIL94, ZIL154, and ZIL171 (partially affected). Differing results can be attributed to differences in the two assay methodologies."}, "[8]": {"molecular_target": "T4, mutant feline IL-31 11E12 protein (Feline_IL31_11E12_mutant) (feline)", "T4 construct": "also called feline 11E12 mutant; 11E12 IL-31 mutant", "T4 chain": "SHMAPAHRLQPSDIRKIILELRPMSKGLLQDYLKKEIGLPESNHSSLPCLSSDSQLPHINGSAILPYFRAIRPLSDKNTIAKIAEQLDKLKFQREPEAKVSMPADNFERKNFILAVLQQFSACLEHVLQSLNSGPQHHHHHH", "experiment": "SPR (Biacore), IL-31 surface, single antibody concentration", "description": "(§1) For the indirect ELISA method, antibody binding to wildtype and feline IL-31 15H05 mutant proteins was assessed. All nine canine monoclonal antibodies (ZIL1, ZIL8, ZIL8, ZIL11, ZIL69, ZIL94, ZIL154, ZIL159, and ZIL171) were capable of binding to wildtype feline IL-31 and binding was impacted by mutations in the mAb 15H05 epitope region confirming the correct binding phenotype determined during the initial screening used to identify them. In comparison, the 11E12 antibody bound to the wild-type feline IL-31 and its binding was not impacted by the mutations in the 15H05 epitope region as evidenced by the data in FIG. 4. To confirm binding, biacore analysis was performed using canine, feline, equine, human, feline 15H05 mutant, and feline 11E12 mutant IL-31 proteins as surfaces and a single test concentration of antibody. Similar to ELISA observations, all antibodies tested bound to wildtype feline IL-31. In agreement with the data described above in this section, mouse antibodies 11E12 and 15H05 both bound to canine and feline IL-31 surfaces. Three additional antibodies where shown to have this dual binding property, ZIL69 (partial canine binding), ZIL94, and ZIL159. From this group of nine fully canine antibodies, only ZIL1 and ZIL9 cross-reacted with equine IL-31. Of note, antibody 15H05 was the only one of all assayed herein that bound to canine, feline, and equine IL-31 indicating some level of epitope conservation across the three species. In contrast, none of the antibodies described herein bound to human IL-31. Additional biacore surfaces were used to verify ELISA observations showing differential binding of antibodies to wildtype feline IL-31 and two proteins with mutations in the 15H05 (15H05 mutant) or 11E12 (11E12 mutant) epitopes."}, "[9]": {"molecular_target": "T5, equine IL-31 protein (Equine_IL31) (equine)", "T5 construct": "Recombinant equine IL-31", "T5 chain": "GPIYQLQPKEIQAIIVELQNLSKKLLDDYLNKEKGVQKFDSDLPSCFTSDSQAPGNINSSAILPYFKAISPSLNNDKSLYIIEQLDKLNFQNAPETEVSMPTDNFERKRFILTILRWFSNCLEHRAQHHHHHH", "experiment": "SPR (Biacore), IL-31 surface, single antibody concentration", "description": "as §1"}, "[10]": {"molecular_target": "T6, mutant feline IL-31 15H05 protein (Feline_IL31_15H05_mutant) (feline)", "T6 sequence": "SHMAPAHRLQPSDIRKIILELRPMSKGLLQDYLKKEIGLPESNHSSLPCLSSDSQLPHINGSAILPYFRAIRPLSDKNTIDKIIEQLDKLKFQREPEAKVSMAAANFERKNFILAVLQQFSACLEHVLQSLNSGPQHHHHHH", "experiment": "indirect ELISA, IL-31 protein coated"}, "[11]": {"molecular_target": "T1, wildtype feline IL-31 protein …", "experiment": "cell-based or functional assay"}, "[12]": {"molecular_target": "T1, wildtype feline IL-31 protein …", "experiment": "SPR (Biacore), feline IL-31 (SEQ ID NO 157)", "description": "The affinity with which candidate mAbs bind canine and feline IL-31 was determined using surface plasmon resonance (SPR) on a Biacore system (Biocore Life Sciences (GE Healthcare), Uppsala, Sweden). To avoid affinity differences associated with differential surface preparation that can occur when immobilizing antibodies to surfaces; a strategy was employed where IL-31 was directly conjugated to the surface. Immobilization was obtained by amine coupling 5 μg/mL IL-31 using N-hydroxysuccinimide (NHS)/1-Ethyl-3-(3-dimethylaminopropyl) carbodiimide (EDC) chemistry. Chips were quenched with ethanolamine and the affinity with which all candidate mAbs bound to the immobilized IL-31 was evaluated. All curves were fit to a 1:1 model. […] Results for affinity measurements are described herein.\nCellular potency was assessed using feline IL-31 to stimulate pSTAT3 signalling in FCFW4 cells. IC₅₀ vlaues were calculated for each antibody as described previously in this application. […] It is worth noting that both antibodies are considered potent with IC₅₀s in the range of those antibodies previously described herein from the 15H05 lineage (FIG. 3)."}}}
{"binder": "15H05 mouse:canine chimera (antibody) heavy: QVQLQQSAAELARPGASVKMSCKTSGYTFTSYTIHWIKQRPGQGLEWIGNINPTSGYTENNQRFKDKTTLTVDRSSNTAYLQLHSLTSEDSAVYFCARWGFKYDGEWSFDVWGAGTTVTVSSASTTAPSVFPLAPSCGSTSGSTVALACLVSGYFPEPVTVSWNSGSLTSGVHTFPSVLQSSGLYSLSSMVTVPSSRWPSETFTCNVAHPASKTKVDKPVPKRENGRVPRPPDCPKCPAPEMLGGPSVFIFPPKPKDTLLIARTPEVTCVVVDLDPEDPEVQISWFVDGKQMQTAKTQPREEQFNGTYRVVSVLPIGHQDWLKGKQFTCKVNNKALPSPIERTISKARGQAHQPSVYVLPPSREELSKNTVSLTCLIKDFFPPDIDVEWQSNGQQEPESKYRTTPPQLDEDGSYFLYSKLSVDKSRWQRGDTFICAVMHEALHNHYTQESLSHSPGK light: DIQMNQSPSSLSASLGDTITVTCRASQGISIWLSWYQQKPGNIPKVLINKASNLHIGVPPRFSGSGSGTHFTLTITSLQPEDIATYYCLQSQTYPLTFGGGTKLEINRNDAQPAVYLFQPSPDQLHTGSASVVCLLNSFYPKDINVKWKVDGVIQDTGIQESVTEQDKDSTYSLSSTLTMSSTEYLSHELYSCEITHKSLPSTLIKSFQRSEC", "values": [{"measurement": "IC50, feline IL-31 signaling on the canine DH82 cell line (pSTAT3)", "setting": "[1]", "value": 0.71, "unit": "µg/ml"}, {"measurement": "IC50, inhibition of feline IL-31-induced STAT3 phosphorylation, feline FCWF4 cells", "setting": "[2]", "value": 3.11, "unit": "µg/mL"}, {"measurement": "IC50 against canine IL-31 (pSTAT3; cell type not stated for this pair of values)", "setting": "[3]", "value": 12.5, "unit": "µg/ml"}, {"measurement": "IC50, inhibition of canine IL-31-induced STAT3 phosphorylation, canine DH82 cells", "setting": "[4]", "value": 12.7, "unit": "µg/mL"}]}
{"binder": "A14 (antibody, V domains shown) VH: QVLLVQSGAEVRTPGASVKIFCKASGYSFTSYTIHWLRQAPAQGLEWMGNINPTSGYTENNQRFKDRLTLTADTSTNTAYMELSSLRSADTAMYYCARWGFKYDGEWSFDVWGAGTTVTVSS VL: EIQMTQSPSSLSASPGDRVTITCRASQGISIWLSWYQQKPGNIPKVLIAKASNLHIGVPSRFSGSGSGTDFTLTISSLEPEDAATYYCLQSQTYPLTFGGGTKLEIK", "values": [{"measurement": "Binding Similarity score", "setting": "[5]", "value": 8.4}, {"measurement": "% Inhibition Relative to Parent (pSTAT, FCWF-4 cells)", "setting": "[6]", "value": -5.4, "unit": "%"}]}
{"binder": "A22 (antibody, V domains shown) VH: QVLLVQSGAEVRTPGASVKIFCKASGYSFTSYTIHWLRQAPAQGLEWMGNINPTSGYTENNQRFKDRLTLTADTSTNTAYMELSSLRSADTAMYYCARWGFKYDGEWSFDVWGAGTTVTVSS VL: EIQMTQSPSSLSASPGDRVTITCRASQGISIWLSWYQQKPGNIPKVLINKASNLHIGVPSRFSGSGSGTDFTLTISSLEPEDAATYYCLQAQTYPLTFGGGTKLEIK", "values": [{"measurement": "Binding Similarity score", "setting": "[5]", "value": 8.34}, {"measurement": "% Inhibition Relative to Parent (pSTAT, FCWF-4 cells)", "setting": "[6]", "value": -4.3, "unit": "%"}]}
{"binder": "ZIL159 (recombinant fully canine antibody) (antibody, V domains shown, also called CAN-ZIL159) VH: EVQLVESGGDLVKPAGSLRLSCVASGFTFSSYVMTWVRQAPGKGLQWVAGINSEGSRTAYADAVKGRFTISRDNAKNTLYLQIDSLRAEDTAIYYCATGDIVATGTSYWGQGTLVTVSS VL: SNVLTQPPSVSVSLGQTATISCSGETLNRFYTQWFQQKAGQAPVLVIYKDTERPSGIPDRFSGSSSGNIHTLTISGARAEDEAAYYCKSAVSIDVGVFGGGTHLTVFR", "values": [{"measurement": "ELISA OD", "setting": "[7]", "value": 1.6, "unit": "OD"}, {"measurement": "binding result", "setting": "[8]", "value": "no binding"}, {"measurement": "binding result", "setting": "[9]", "value": "no binding"}, {"measurement": "ELISA OD", "setting": "[10]", "value": 1.31, "unit": "OD"}]}
{"binder": "ZTS-5864 (antibody, V domains shown, see recheck) VH: DVQLVESGGDLVKPGGSLRLTCVASGFTFSDYAMSWVRQAPGKGLQWVAGIDSVGSGTSYADSVKGRFTISRDNAKNTLYLQMNSLKTEDTATYYCASGFPGSFEHWGQGALVTVSS VL: QSVLTQPSSVSGTLGQRITISCTGSSSNIGSGYVGWYQQVPGMGPKTVIYYNSDRPSGVPDRFSGSKSGSSGTLTITGLQAEDEADYYCSVYDRTFNAVFGGGTHLTVLG", "values": [{"measurement": "IC50, feline IL-31 stimulated pSTAT3 signalling in FCFW4 cells, relative to ZTS-5865", "setting": "[1]", "value": "~3", "unit": "fold"}, {"measurement": "IC50, inhibition of feline IL-31 induced pSTAT3 in feline FCWF4 cells", "setting": "[11]", "value": 3.73, "unit": "µg/ml"}, {"measurement": "Kd", "setting": "[12]", "value": 0.571, "unit": "nM"}, {"measurement": "kon", "setting": "[12]", "value": 108000, "unit": "M⁻¹ s⁻¹"}]}
{"binder": "ZTS-5865 (antibody, V domains shown, see recheck) VH: DVQLVESGGDLVKPGGSLRLTCVASGFTFSDYAMNWVRQAPGKGLQWVAGIDSVGSGTSYADSVKGRFTISRDNAKNTLYLQMSGLKTEDTATYYCASGFPGSFEHWGQGTLVTVSS VL: QSVLTQPSSVSGTLGQRITISCTGSSSNIGSGYVGWYQQVPGMGPKTVIYYNSDRPSGVPDRFSGSKSGSSGTLTITGLQAEDEADYYCSVYDRTFNAVFGGGTHLTVLG", "values": [{"measurement": "IC50, inhibition of feline IL-31 induced pSTAT3 in feline FCWF4 cells", "setting": "[11]", "value": 9.08, "unit": "µg/ml"}, {"measurement": "Kd", "setting": "[12]", "value": 2.12, "unit": "nM"}, {"measurement": "kon", "setting": "[12]", "value": 76200, "unit": "M⁻¹ s⁻¹"}]}
